Reference: PMC3234246, “HIV-1 Capsid-Cyclophilin Interactions Determine Nuclear Import Pathway, Integration Targeting and Replication Efficiency” (PLoS Pathogens, 2011)

Target: T1, cyclophilin A (CypA), human (human, UniProt P62937 1-165)
T1 construct: human cyclophilin A (peptidyl-prolyl cis-trans isomerase A)
Experiment: ITC; recombinant CypA or Nup358Cyp against recombinant CA^NTD, without cyclosporine; done as described in ref. 25
Conditions: both partners purified

B1: SIVmac capsid N-terminal domain (CA^NTD) (domain or fragment)
chain: not shown
modifications: No candidate fits. The accession (SIVmac Gag, isolate Mm142-83) is from memory because the isolate is not printed. Limits are CA residues 1-144, matching HIV-1 CA 1-146 (pdb 1M9D entity 2). Check …
- Kd: ~800 µM
